Measured values published in paper PMC7954794, “Protein context shapes the specificity of SH3 domain-mediated interactions in vivo” (Nature Communications, 2021).

Test system: PPIs identified as affected by the SH3 domain deletions
Assay: Liquid DHFR-PCA low-throughput validation of PPIs affected by SH3 deletion (Fig. S1D-E)
Type: cell-based, Saccharomyces cerevisiae
Conditions: label = prey, liquid DHFR-PCA, prey _1 = lost, _2 = gained in screen
Protocol: Liquid DHFR-PCA low-throughput experiments were performed to validate the PPIs identified as affected by the SH3 domain deletions in the high-throughput solid DHFR-PCA screen (256 PPIs weaker or lost and 116 PPIs stronger or gained following domain deletions). Mating and the diploid selection were performed as described for the large-scale experiment, with the exception that the plates were in 384 formats. Following the second diploid selection, diploid cells were inoculated in a 96 v-shaped well plate using a robotically manipulated 96 pin tool in a synthetic complete medium with MSG at pH 6.0 with NAT and HPH. After 48 h of growth, optical density (OD) was read using a TECAN Infinite F200 Pro, and dilutions to 1 OD in sterile nanopure water were prepared. Cells were then diluted to 0.1 OD by combining 25 µl of cell suspension at OD = 1 and 225 µl of PCA selection media without agar in a 96-wells plate. Plates were incubated at 30 °C in a TECAN Infinite M Nano and OD was monitored each 15 min for 72 h.

B1: YGL099W_1 (protein, UniProt P53145 1-640, looked up)
Large subunit GTPase 1: MPPKEAPKKWKAPKGPKPTHRKNKNKLELGRAIKYARQKENAIEYLPDGEMRFTTDKHEANWVKLRSVTQESALDEFLSTAALADKDFTADRHSNVKIIRMDSGNDSATSQGFSMTNEQRGNLNAKQRALAKDLIVPRRPEWNEGMSKFQLDRQEKEAFLEWRRKLAHLQESNEDLLLTPFERNIEVWKQLWRVVERSDLVVQIVDARNPLLFRSVDLERYVKESDDRKANLLLVNKADLLTKKQRIAWAKYFISKNISFTFYSALRANQLLEKQKEMGEDYREQDFEEADKEGFDADEKVMEKVKILSIDQLEELFLSKAPNEPLLPPLPGQPPLINIGLVGYPNVGKSSTINSLVGAKKVSVSSTPGKTKHFQTIKLSDSVMLCDCPGLVFPNFAYNKGELVCNGVLPIDQLRDYIGPAGLVAERIPKYYIEAIYGIHIQTKSRDEGGNGDIPTAQELLVAYARARGYMTQGYGSADEPRASRYILKDYVNGKLLYVNPPPHLEDDTPYTREECEEFNKDLYVFDRLPDTRKEQVQNAAKAKGIDIVDLARDLNQLTFSAHTGGDTQKEAKSVTHGGKQAALYNAAEDLDRDFFKMNNVEGRLSTPFHKVQNSSAGKRHNKKNKSKNAKSKVFSIENN
- Ratio (Deletedscore / WTscore) (bait ABP1): 1.003

B2: YKL117W_2 (protein, UniProt P28707 2-216, looked up)
Co-chaperone protein SBA1: SDKVINPQVAWAQRSSTTDPERNYVLITVSIADCDAPELTIKPSYIELKAQSKPHVGDENVHHYQLHIDLYKEIIPEKTMHKVANGQHYFLKLYKKDLESEYWPRLTKEKVKYPYIKTDFDKWVDEDEQDEVEAEGNDAAQGMDFSQMMGGAGGAGGAGGMDFSQMMGGAGGAGSPDMAQLQQLLAQSGGNLDMGDFKENDEEDEEEEIEPEVKA
- Ratio (Deletedscore / WTscore) (bait ABP1): 1.066
- Ratio (Deletedscore / WTscore) (bait BZZ1-2): 1.596
- Ratio (Deletedscore / WTscore) (bait LSB3): 1.715
- Ratio (Deletedscore / WTscore) (bait RVS167): 1.422

B3: YPR055W_1 (protein, UniProt P32855 1-1065, looked up)
Exocyst complex component SEC8: MDYLKPAQKGRRRGLSINSLSETQQSAMNSSLDHLQNDLNRINLQWNRILSDNTNPLELALAFLDDTSVGLGHRYEEFNQLKSQIGSHLQDVVNEHSQVFNTNVASYGKAVSSIMQAQEQTLNLKNCLKEANEKITTDKGSLQELNDNNLKYTKMIDVLVNIEELLQIPEKIEENIRKENFHQVQILLERGFILMNNKSLKTVEILKPINQQLELQEHLLFNNLIEEIHDIMYSKSNKTNFTRVTNNDIFKIISISHNGFTSLENYLYNIVNIDIMEHSKTINKNLEQFIHDQSLNKGNIMLQENAATQAPLAPSRNQENEGFNRIGFLLKTINNINKLPVAFNIITERAKEEIHNIIVKSTESIRSKHPSLLKMATSLKNDNHFGLPVQDILSIILRECFWEIFLKLLYAIQCHRAIFEMSNILQPTSSAKPAFKFNKIWGKLLDEIELLLVRYINDPELISSNNGSIKPINGATNNAPTLPKRKNPKIFSLEYNIEDNSSVKDQAFELKALLKDIFPGFSVSSNMDLDSIYVKDESFEQDEPLVPPSVFNMKVILDPFLLFTQSTSTIVPSVLTQNTISSLTFFDDYMNKSFLPKIQMTMDYLFTVEVESNNPYALELSDENHNIFKTALDFQRLFYNLLNVFNTANTFREKISYCILDLLNHFYNYYLGLFNSLIGTSDRHLTRKIITAWLQNGILMDQEQKILNGDETLFHEESIELFKEIPHFYQAGKGLSKSDLFNNLTLDTILQFSASVLWILNWLPGLKKAINIDEVSQEPMLDADRLRSSWTFSESMDLNYSNPSSSPNSLGNLKILLDDKASKKFDETIDGFKTLKFKLITILRFNIRALCIYDIGSFFQNTKIWNMDVGSIELDQNIASLISELRRTESKLKQQLPEKEKNSIFIGLDIVNNYALIKGAKSIKVLNHNGIKKMLRNVNVLQHAYRNLSSEPSKINMNVTMNFYSLCGSSEAELFEYIKDNELPHCSVEDLKTILRLQFSEEMHRQLKRQSTSSTKGSIKPSNKRYTEALEKLSNLEKEQSKEGARTKIGKLKSKLNAVHTANEK
- Ratio (Deletedscore / WTscore) (bait ABP1): 0.936
- Ratio (Deletedscore / WTscore) (bait BEM1-1): 1.037
- Ratio (Deletedscore / WTscore) (bait BEM1-2): 0.6358
- Ratio (Deletedscore / WTscore) (bait LSB3): 0.783

B4: YGR229C_2 (protein, UniProt P32566 1-505, looked up)
Cell wall assembly regulator …: MDLFKRKVKEWVYSLSTDDHYAEYNPDETPTFNMGKRLNSNNGQVNPSQMHLNSVDEEMSMGFQNGVPSNEDINIDEFTSTESNDGVSETLLAWRHIDFWTSEHNPDLNATLSDPCTQNDITHAEEDLEVSFPNPVKASFKIHDGQEDLESMTGTSGLFYGFQLMTLDQVVAMTQAWRNVAKNLNKRSQQGLSHVTSTGSSSSMERLNGNKFKLPNIPDQKSIPPNAVQPVYAHPAWIPLITDNAGNHIGVDLAPGPNGKYAQIITFGRDFDTKFVIAENWGEFLLSFANDLEAGNWYLVDDNDDYFSGDGELVFRDKKSNGPIQDYFEVLKRRTWIKYQENLRSQQQKSQPDTSLQEQKYVPASQKKVAAEQPSTLNAESIKGEDSGSADVQSVQDHESVKIVKTEPSEAETTTVNTESLGQAEHEIKADNVDIKQESERKEDEKQPKVEEKEHVENEHVTESAKKDDDVNKQTEEMNKKEENEIRSDDAKVEEAREEFENIAL
- Ratio (Deletedscore / WTscore) (bait BZZ1-1): 1.034
- Ratio (Deletedscore / WTscore) (bait BZZ1-2): 1.734
- Ratio (Deletedscore / WTscore) (bait LSB1): 1.08
- Ratio (Deletedscore / WTscore) (bait PIN3): 1.619

B5: YCL024W_2 (protein, UniProt P25389 1-1037, looked up)
Probable …: MTVANTETHSAAKPSSTIGPWKLGETLGFGSTGKVQLAQHERTGHRTAVKVISKSIFNNNGNHSNDDSVLPYNIEREIVIMKLLSHPNVLSLYDVWETNNNLYLILEYAEKGELFNLLVDHGPLPEREAINCFRQIIIGISYCHALGIVHRDLKPENLLLDSFYNIKIADFGMAALQTDADLLETSCGSPHYAAPEIVSGLPYEGFASDVWSCGVILFALLTGRLPFDEENGNVRDLLLKVQKGQFEMPNDTEISRDAQDLIGKILVVDPRQRIKIRDILSHPLLKKYQTIKDSKSIKDLPRENTYLYPLADSNNHTSASIDDSILQNLVVLWHGRHADDIVSKLKENGTNKEKILYALLYRFKLDSVRGSNKKNRNKIKKTKKNKRSSTLSSSSSLLLNNRSIQSTPRRRTSKRHSREFSSSRKRSSFLLSSNPTDSSPIPLRSSKRITHINVASANTQATPSGVPNPHKRNSKKRSSKRLSYMPNTKRSSLTSKSLSNFTNLIDDDDWEYIEKDAKRTSSNFATLIDEIFEPEKFELAKREKAELQRKVQEAKRQSVNAQKINEDEFGSEVSDGMKELKKINDKVSSPLINYEFSQQELLQDIDTLLTNRYQLSSYTRPISRLDPGLTPVTETLPNNLKEKTALLQDTEKKIIETIRRSKFLGSLLNVRGGLSPGKSELAPIEESPIVSTTPLIYNDRMEPRRISDVEVPHFTRKSKHFTTANNRRSVLSLYAKDSIKDLNEFLIKEDPDLPPQGSTDNESRSEDPEIAESITDSRNIQYDEDDSKDGDNVNNDNILSDFPQGVGISQEYDMKDKNPNQSPISKSAEPTLVVKLPSLSSFQGKNASGLGLYQREPSKVTLPSLTSNNSSVGENIEDGAEKGTESEKIAASLSDDDLKEDNDKKDNDTVNAPTTVKKPPNSVLLKKFSKGKILELEIHAKIPEKRLYEGLHKLLEGWKQYGLKNLVFNITNMIITGKLVNDSILFLRSTLFEIMVLPNGDGRSLIKFNKKTGSTKTLTKLATEIQIILQKEGVLDK
- Ratio (Deletedscore / WTscore) (bait NBP2): 1.51

B6: YOR284W_1 (protein, UniProt Q12134 1-243, looked up)
Protein HUA2: MQQTKFGKMYLDHDSVVEYSEDEIVEADRITLGYKKRLSMIENQMRHLLEDFSLDVQQIEPILADLQKYYDAFLQLLQKRNKSLQCKRSTHQPVPSPMNSQTSTNAKVNLSGKLMKFQLNSVQKFDEENILRILQNKIEFEHYFQIDKGKKQKVLLLAVYQCLNGPTRLHKVLNIEGIIHNNSIRTILGKQVSSSKWTVFLYDVKLVLLAHRQDVPNLETSKMIVRYGDLFPCALYFKDHTAY
- Ratio (Deletedscore / WTscore) (bait ABP1): 0.3885

B7: YLR191W_2 (protein, UniProt P80667 1-386, looked up)
Peroxisomal membrane protein …: MSSTAVPRPKPWETSASLEEPQRNAQSLSAMMTSNQQDSRPTEESNNSNSASESAPEVLPRPAALNSSGTYGESNTIPGIYGNSNYGIPYDNNPYSMNSIYGNSIGRYGYGGSYYGNNYGSFYGGGYGAGAGYGMNNGSGLGESTKATFQLIESLIGAVTGFAQMLESTYMATHNSFFTMISVAEQFGNLKEMLGSFFGIFAIMKFLKKILYRATKGRLGIPPKNFAESEGSKNKLIEDFQKFNDSGTINSNEKATRRKISWKPLLFFLMAVFGFPYLLNKFITKLQTSGTIRASQGNGSEPIDPSKLEFARALYDFVPENPEMEVALKKGDLMAILSKKDPLGRDSDWWKVRTKNGNIGYIPYNYIEIIKRRKKIEHVDDETRTH
- Ratio (Deletedscore / WTscore) (bait BEM1-1): 1.873
- Ratio (Deletedscore / WTscore) (bait): 1.174

B8: YNL094W_1 (protein, UniProt P53933 1-587, looked up)
Phosphatidate phosphatase APP1: MNSQGYDESSSSTAATSGPTSGDPRMGKKQRFMNLIRTTKDVYIPNLTSSISQKTMDGIRSTTNSFEGYNDLPMELPHNTTITYFPTYTTTNLVDPDGLSAPRKDFETTVRCAVSYPGNPTSRRNRWLLSLCKQYLRTGTAEADVAPVVPPHLEEDSGDLNDSQSSIESSLSSKSENRYSHMGIQEEDVLNERIQGFLSKKVPNTPVVVDLLPKDKLRGDTASFFGTTDSYGNLLIKAETDFLPSKINITLDTPIEGHADPISETFPANYVSPYGIGLISDIDDTIKHTGVTGDRRSMFRNVFIHDVQSWVIDGVPLWYKTLHDVADVDFFYVSNSPIQTFTLLKQYICANFPPGPIFLKQYSGNFFSTIMTSSANRKIQPIANILKDFPKKKFILVGDSGEHDLEAYTTTALQFPNQILAIYIRCCSNSMSDVPSHDEEVMNEVNNIIELQQRPMQMTKSTVRTRRRPPPPPIPSTQKPSLTEEQTESIRMSRRNKDENNAKRVAPPPLPNRQLPNLDANTYYVPSSQNDYGMYGAFMDKKADEWKRRVMDSIQKLSNQDTTLMFFSDPALSLEDSIRRIREKYSN
- Ratio (Deletedscore / WTscore) (bait ABP1): 0.4956
